Results: patent US8080400B2, “Crystal structure of monoacylglycerol lipase (MGLL)” (Janssen Pharmaceutica N.V., priority 2009, dated 2011)
Where a chain is given by its changes, count along the chain named. In names and notes the source's numbering stands.

T1: MGLL (Homo sapiens, UniProt Q99685, L169S/L176S)
T1 construct: His tag followed by a TEV cleavage site (N); made in house; host or cells: Sf9 insect cells (baculovirus)
T1 sequence (Q99685 with tags, fused parts or gaps L169S/L176S): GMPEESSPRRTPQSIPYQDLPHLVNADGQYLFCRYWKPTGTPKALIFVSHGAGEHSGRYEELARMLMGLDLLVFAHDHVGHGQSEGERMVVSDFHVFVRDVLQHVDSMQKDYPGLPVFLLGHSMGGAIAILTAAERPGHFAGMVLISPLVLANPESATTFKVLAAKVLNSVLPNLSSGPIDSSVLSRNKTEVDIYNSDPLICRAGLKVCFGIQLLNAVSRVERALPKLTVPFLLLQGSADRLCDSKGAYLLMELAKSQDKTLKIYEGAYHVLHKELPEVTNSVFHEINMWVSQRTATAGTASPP

B1: wt-MGLL.1-303: wild-type human MGLL isoform 2, amino acids 1-303, with N-terminal His tag and TEV site (SEQ ID NO: 3) (protein)
chain: MVDHHHHHHENLYFQGMPEESSPRRTPQSIPYQDLPHLVNADGQYLFCRYWKPTGTPKALIFVSHGAGEHSGRYEELARMLMGLDLLVFAHDHVGHGQSEGERMVVSDFHVFVRDVLQHVDSMQKDYPGLPVFLLGHSMGGAIAILTAAERPGHFAGMVLISPLVLANPESATTFKVLAAKVLNLVLPNLSLGPIDSSVLSRNKTEVDIYNSDPLICRAGLKVCFGIQLLNAVSRVERALPKLTVPFLLLQGSADRLCDSKGAYLLMELAKSQDKTLKIYEGAYHVLHKELPEVTNSVFHEINMWVSQRTATAGTASPP
modifications: N-terminal His tag and TEV site
B2: mut-MGLL 1-303, L169S, L176S, K36A, K226A: engineered human MGLL 1-303 with L169S, L176S and surface mutations K36A, K226A (protein)
chain: B1 chain with K52A, L185S, L192S, K242A
B3: mut-MGLL 1-303, L169S, L176S, K226A: engineered human MGLL 1-303 with L169S, L176S and surface mutation K226A (protein)
chain: B1 chain with L185S, L192S, K242A
B4: mut-MGLL. 1-303, L169S, L176S, K165A: engineered human MGLL 1-303 with L169S, L176S and surface mutation K165A (protein)
chain: B1 chain with K181A, L185S, L192S
B5: mut-MGLL. 1-303, L169S, L176S, K160A: engineered human MGLL 1-303 with L169S, L176S and surface mutation K160A (protein)
chain: B1 chain with K176A, L185S, L192S
B6: mut-MGLL. 1-303, L169S, L176S: engineered human MGLL 1-303 with cap-domain mutations L169S, L176S; SEQ ID NO: 5 after TEV cleavage (protein)
chain: T1 sequence (Q99685 with tags, fused parts or gaps L169S/L176S)

Experiments:
[1] = Thermofluor thermal stability assay (Tm of MGLL protein); assay type: physicochemical; conditions: for Tm (midpoint of the melting transition): 0.05 mg/ml protein, 50 mM Pipes pH 7, 200 mM NaCl, 100 μM 1,8-ANS, 0.001% Tween
Source text: (§1) Thermofluor® assays detect small changes in the intrinsic melting temperature of proteins based on binding of ligands. Compounds that interact preferentially with the native form of the protein will increase the Tm, the temperature at which half of the protein is unfolded (Pantoliano et al. 2001). The technique monitors changes in the fluorescent intensity of dyes such as 1-anilinonaphthalene-8-sulfonic acid (1,8-ANS). The fluorescent dyes are quenched in aqueous environments but increase in fluorescence on binding to the hydrophobic core of denatured proteins.
as §1, with “The Thermofluor®” for “Thermofluor®”, “assay is a powerful tool to screen for small molecule inhibitors interacting with a protein's active site or allosteric site. The assay detects” for “assays detect”
Thermofluor® assays were conducted to characterize wt-MGLL (hMGLL 1-303) (SEQ ID NO: 3) and mut-MGLL (hMGLL 1-303 L169S, L176S) and evaluate if the MGLL mutants could be used for high-throughput screening using Thermofluor®. Three microliters of protein at a concentration of 0.05 mg/ml in 50 mM Pipes pH 7, 200 mM NaCl, 100 μM 1,8-ANS, and 0.001% Tween was added to pre-dispensed compound plates. Wells were overlaid with silicone oil (1 μL, Fluka, type DC 200) to prevent evaporation. Final compound concentrations varied from 150 to 0.15 μM. Assay plates were heated at a rate of 1° C./min for all experiments over a temperature range sufficient to measure protein unfolding. Fluorescence was measured by continuous illumination with UV light (Hamamatsu LC6) supplied via fiber optic and filtered through a custom band-pass filter (380-400 nm; >60D cutoff). Fluorescence emission was detected by measuring light intensity using a CCD camera (Sensys, Roper Scientific) filtered to detect emission at 500±25 nm, resulting in simultaneous and independent readings of all 384 wells. One or more images were collected at each temperature, and the sum of the pixel intensity in a given area of the assay plate was recorded vs temperature, and fit to standard equations to yield the Tm.

[2] = system: MGLL; test: Kinetic analysis: hydrolysis of 4-methylcoumarin butyrate (4MC-B) by MGLL constructs; assay type: biochemical, human; conditions: substrate 4MC-B; 4-5 nM MGLL, 20 mM Pipes pH 7, 150 mM NaCl, 37° C.; average of 2 or 4 separate assays
Description: The Michaelis-Menten parameters for the hydrolysis of 4-methylcoumarin butyrate (4MC-B) and coumarin arachidonate (C-A) substrate were determined using 4-5 nM of MGLL in 20 mM Pipes pH 7 and 150 mM NaCl at 37° C. […] The hyperbolic rates versus substrate concentration curves for the hydrolysis of 4MC-B were fit to the Michaelis-Menten equation using Excel.

[3] = target: T1, MGLL; test: Kinetic analysis: hydrolysis of coumarin arachidonate (C-A) by MGLL constructs; assay type: biochemical; conditions: substrate C-A
Source text: A small fluorescent substrate, 4-methyl coumarin butyrate (4MC-B) was used to compare the activity of the engineered mutants to the activity of wt-MGLL (hMGLL 1-303) (SEQ ID NO: 3). The catalytic efficiency (kcat/KM) for the hydrolysis of the 4MC-B was similar for wt-MGLL (hMGLL 1-303) (SEQ ID NO: 3) and all MGLL mutants tested (Table 2). A larger more aliphatic fluorescent substrate, Coumarin Arachidonate (C-A), structurally more closely related to the MGLL natural substrate, 2-AG, was used to compare the activity of wt-MGLL (hMGLL 1-303) (SEQ ID NO: 3) to TEV cleaved mut-MGLL (hMGLL 1-303 L169S, L176S) (SEQ ID NO: 5).
The Michaelis-Menten parameters for the hydrolysis of 4-methylcoumarin butyrate (4MC-B) and coumarin arachidonate (C-A) substrate were determined using 4-5 nM of MGLL in 20 mM Pipes pH 7 and 150 mM NaCl at 37° C. The change in fluorescence due to substrate hydrolysis was monitored using excitation/emission wavelengths of 335/440 in a Safire II instrument from Tecan. The hyperbolic rates versus substrate concentration curves for the hydrolysis of 4MC-B were fit to the Michaelis-Menten equation using Excel.
The apparent kcat/KM ratio for the hydrolysis of C-A was determined at [S]<<KM. […] The kcat/KM values reported are the average from independent values determined from five substrate concentrations ranging from 700 to 40 nM.

[4] = Size exclusion chromatography of protein purified in the absence of detergent (aggregation / monomer); assay type: physicochemical
Description: A pilot purification of wt-MGLL (hMGLL 1-303) (SEQ ID NO: 3), performed in the complete absence of detergent, generated no protein (data not shown). A second purification of wt-MGLL (hMGLL 1-303) (SEQ ID NO: 3) was done with detergent in the lysis buffer only. Frozen cell pellets for wt-MGLL (hMGLL 1-303) (SEQ ID NO: 3) were thawed, resuspended, and lysed in Bugbuster® lysis buffer for 1 hour at 4° C. Bugbuster® lysis buffer is a proprietary lysis buffer from […] that contains detergent. The lysate was clarified by centrifugation at 40,000×g for 1 hr. No detergent was added at this point or during the rest of the purification. From this point forward, the purification protocol and buffers were the same as described below for mut-MGLL. An average of 2.2 mg of wt-MGLL (hMGLL 1-303) (SEQ ID NO: 3) per liter of cell culture was obtained.
Mutant MGLL (mut-MGLL) constructs were purified in the absence of detergent. […] Fractions were analysed by SDS-PAGE. […] Purification yields were determined by Bradford assay using the protein assay kit from BioRad according to manufacturer's instruction with BSA as a standard (Bradford 1976).

Row | Molecule | quality of the Thermofluor melting transition [1] | Tm (midpoint of the melting transition) [1] [°C] | Km [2] [µM] | also measured
1 | B1 | very poor transition | 58 | – | –
2 | B2 | – | – | 123 | –
3 | B3 | – | – | 110 | –
4 | B4 | – | – | 137 | –
5 | B5 | – | – | 90 | –
6 | B6 | strong transition | 56.7 | – | catalytic efficiency for hydrolysis of C-A compared with wt-MGLL [3]: equivalent; monomer [4]: 90%
